# Substitutions are numbered along the chain they refer to. Numbers in names are those of the source. Where two headings read alike, the source gives them in different places.
# B1: TRIDENT-A5 (bispecific antibody, human IgG1, kappa, L234A L235A)
# chain 1: EIVMTQSPATLSLSPGERATLSCRASQSVSSNYLSWYQQKPGQAPRLLIYGASTRATGIPARFSGSGSGTDFTLTISSLQPEDFAVYYCQQDYDLPWTFGQGTKVEIKGGGSGGGGQVQLQESGPGLVKPSETLSLTCTVSGGSISSYYWSWIRQPPGKGLEWIGRIYTSGSTNYNPSLKSRVTMSVDTSKNQFSLKLSSVTAADTAVYYCARDGWYDEDYNYYGMDVWGQGTTVTVSSGGCGGGEVAALEKEVAALEKEVAALEKEVAALEKGGGDKTHTCPPCPAPEAAGGPSVFLFPPKPKDTLYITREPEVTCVVVDVSHEDPEVKFNWYVDGVEVHNAKTKPREEQYNSTYRVVSVLTVLHQDWLNGKEYKCKVSNKALPAPIEKTISKAKGQPREPQVYTLPPSREEMTKNQVSLWCLVKGFYPSDIAVEWESNGQPENNYKTTPPVLDSDGSFFLYSKLTVDKSRWQQGNVFSCSVMHEALHNHYTQKSLSLSPGK
# chain 2: EIVMTQSPATLSLSPGERATLSCRASQSVSSNYLSWYQQKPGQAPRLLIYGASTRATGIPARFSGSGSGTDFTLTISSLQPEDFAVYYCQQDYDLPWTFGQGTKVEIKGGGSGGGGQVQLQESGPGLVKPSETLSLTCTVSGGSISSYYWSWIRQPPGKGLEWIGRIYTSGSTNYNPSLKSRVTMSVDTSKNQFSLKLSSVTAADTAVYYCARDGWYDEDYNYYGMDVWGQGTTVTVSSGGCGGGKVAALKEKVAALKEKVAALKEKVAALKE
# heavy: EVQLVESGGGLVQPGGSLRLSCAASGFTFSSYTMSWVRQAPGKGLEWVAYISIKGGTTYYPDTVKGRFTISRDNAKNSLYLQMNSLRAEDTAVYYCARQGLPYYGDYWGQGTLVTVSSASTKGPSVFPLAPSSKSTSGGTAALGCLVKDYFPEPVTVSWNSGALTSGVHTFPAVLQSSGLYSLSSVVTVPSSSLGTQTYICNVNHKPSNTKVDKRVEPKSCDKTHTCPPCPAPEAAGGPSVFLFPPKPKDTLYITREPEVTCVVVDVSHEDPEVKFNWYVDGVEVHNAKTKPREEQYNSTYRVVSVLTVLHQDWLNGKEYKCKVSNKALPAPIEKTISKAKGQPREPQVYTLPPSREEMTKNQVSLSCAVKGFYPSDIAVEWESNGQPENNYKTTPPVLDSDGSFFLVSKLTVDKSRWQQGNVFSCSVMHEALHNRYTQKSLSLSPGK
# light: DIQMTQSPSSLSASVGDRVTITCKASQDVNEAVAWYQQKPGKAPKLLIYWASTRHTGVPSRFSGSGSGTDFTLTISSLQPEDFATYYCQQHYNTPLTFGQGTKVEIKRTVAAPSVFIFPPSDEQLKSGTASVVCLLNNFYPREAKVQWKVDNALQSGNSQESVTEQDSKDSTYSLSSTLTLSKADYEKHKVYACEVTHQGLSSPVTKSFNRGEC
# notes: Trivalent; two CD137 MAB-6(1.2) sites, one hPD-L1 MAB-2(3.2) site
# B2: TRIDENT-A6 (bispecific antibody, human IgG1, kappa, L234A L235A)
# chain 1: B1 chain 1 with Y37F
# chain 2: B1 chain 2 with Y37F
# heavy: B1 heavy
# light: B1 light
# notes: Trivalent; two CD137 MAB-6(1.3) sites, one hPD-L1 MAB-2(3.2) site
# B3: hPD-L1 MAB-2(1.1) (antibody, V domains shown)
# VH: EVQLVESGGGLVQPGGSLRLSCAASGFTFSSYTMSWVRQAPGKGLEWVAYISIGGGTTYYPDTVKGRFTISRDNAKNTLYLQMNSLKTEDTAVYYCARQGLPYYFDYWGQGTLVTVSS
# VL: DIQMTQSPSSLSASVGDRVTITCKASQDVNTAVAWYQQKPGKAPKLLIYWASTRHTGVPSRFSGSGSGTDFTLTISSLQPEDFATYYCQQHYNTPLTFGQGTKVEIK
# notes: Humanized anti-PD-L1 antibody; also called hPD-1 MAB-2(1.1); hPD-1 MAB-2 VH1
# B4: hPD-1 MAB-2 VH1 + K83R and T84A (antibody, V domains shown)
# VH: B3 VH with K87R, T88A
# VL: B3 VL
# notes: Deimmunization variant of hPD-L1 MAB-2(1.1)
# B5: hPD-1 MAB-2 VH1 + T77S (antibody, V domains shown)
# VH: B3 VH with T78S
# VL: B3 VL
# notes: as for B4
# B6: hPD-1 MAB-2 VH1 + T77S, K83R and T84A (antibody, V domains shown)
# VH: B3 VH with T78S, K87R, T88A
# VL: B3 VL
# notes: also called hPD-L1 MAB-2 VH2; hPD-L1 MAB-2(2.1)
# B7: hPD-L1 MAB-2F (antibody) (antibody, V domains shown)
# VH: B3 VH with G54K, F105G
# VL: B3 VL with T31E
# B8: DART-A (bispecific antibody, IgG1)
# chain 1: DIQMTQSPSSLSASVGDRVTITCKASQDVNTAVAWYQQKPGKAPKLLIYWASTRHTGVPSRFSGSGSGTDFTLTISSLQPEDFATYYCQQHYNTPLTFGQGTKVEIKGGGSGGGGQVQLQESGPGLVKPSETLSLTCTVSGGSISSYYWSWIRQPPGKGLEWIGRIYTSGSTNYNPSLKSRVTMSVDTSKNQFSLKLSSVTAADTAVYYCARDGWYDEDYNYYGMDVWGQGTTVTVSSGGCGGGEVAACEKEVAALEKEVAALEKEVAALEKLEPKSADKTHTCPPCPAPEAAGGPSVFLFPPKPKDTLYITREPEVTCVVVDVSHEDPEVKFNWYVDGVEVHNAKTKPREEQYNSTYRVVSVLTVLHQDWLNGKEYKCKVSNKALPAPIEKTISKAKGQPREPQVYTLPPSREEMTKNQVSLTCLVKGFYPSDIAVEWESNGQPENNYKTTPPVLDSDGSFFLYSKLTVDKSRWQQGNVFSCSVMHEALHNHYTQKSLSLSPG
# chain 2: EIVMTQSPATLSLTPGERATLSCRASQSVSSNYLSWFQQIPGQAPRLLIYGASTRATGIPARFSGSGSGTDFTLTISSLQPEDFAVYYCQQDYDLPWTFGQGTKVEIKGGGSGGGGEVQLVESGGGLVQPGGSLRLSCAASGFTFSSYTMSWVRQAPGKGLEWVAYISIGGGTTYYPDTVKGRFTISRDNAKNTLYLQMNSLKTEDTAVYYCARQGLPYYFDYWGQGTLVTVSSGGCGGGKVAACKEKVAALKEKVAALKEKVAALKE
# notes: Tetravalent CD137 x PD-L1 Fc diabody; CD137 MAB-6(1.1) and hPD-L1 MAB-2(1.1); IgG1 (AA/YTE)
# Assays:
# [1] = molecular target: T1, CD137 expressed on the cell surface (CHO/CD137 cells) (UniProt Q07011 24-255, limits assumed); assay: flow cytometry (FACS) on CHO cells expressing CD137, MFI
# T1 construct: whole, on cells; also called cell surface CD137; Jurkat-NF-κB-Luc reporter cells overexpressing CD137
# [2] = molecular target: T2, PD-L1 expressed on the cell surface (CHO/PD-L1 cells) (UniProt Q9NZQ7 19-290); assay: cell-based or functional assay
# [3] = molecular target: T2, PD-L1 expressed on the cell surface …; assay: cell-based or functional assay; remark: listed apart in the source
# [4] = molecular target: T2, PD-L1 expressed on the cell surface …; assay: cell-based or functional assay; remark: listed apart in the source
# [5] = molecular target: T2, PD-L1 expressed on the cell surface …; assay: flow cytometry (FACS) on CHO cells expressing PD-L1, MFI
# Procedure: (§1) FACS analysis to evaluate the test articles for binding to cell surface PD-L1 was performed essentially as follows: 100 μL of CHO cells expressing PD-L1 (CHO/PD-L1) (1.0×10⁵ to 1.0×10⁶ cells/well) and 100 μL of serially diluted test article was added to each well of microtiter assay plate(s), mixed and incubated at RT for about 30 min. The cells were washed with FACS Buffer and secondary antibody (goat anti-human-FITC, PE, or APC) was then added to each well, after which, the components were mixed and the wells were incubated at RT for about 30 min. Cells were washed and resuspended in 250 μL FACS Buffer and analyzed by flow cytometry (BD LSR Fortessa or FACSCanto II) for cell events collection. Data analysis were performed via FloJo v10.
# Test articles were used at 10 μg/mL and five-fold serial dilutions for the FACS analysis and at 50 μg/mL and five-fold serial dilutions for the PD-L1 reporter assay.
# [6] = molecular target: T2, PD-L1 expressed on the cell surface …; assay: flow cytometry (FACS) on JIMT-1 cells (PD-L1 positive), MFI
# [7] = molecular target: T3, soluble PD-L1 fused to a His tag (shPD-L1) (UniProt Q9NZQ7 19-238, limits assumed); assay: ELISA on plate-coated shPD-L1
# T3 construct: the species of shPD-L1 is not written out; also called shPD-L1-his; not shown: His tag
# Procedure: For the hybridoma supernatants anti-CD137 antibody was utilized at 1.0 μg/mL and six three-fold serial dilutions. The amount of test article binding to the immobilized CD137 (human or cynomolgus monkey) was assessed using a goat anti-mouse IgG-HRP secondary antibody. All samples were analyzed on a plate reader (Victor 2 Wallac, Perkin Elmer) and EC50 values were calculated from dose-response curves by nonlinear regression analysis.
# The binding of antibodies comprising these substitutions were evaluated for binding to a soluble PD-L1- fused to a His tag (shPD-L1) using an ELISA assay essentially as described above for CD137 binding except the plates were coated with shPD-L1 at 0.5 μg/mL and a goat anti-human IgG-HRP secondary antibody was used.
# [8] = molecular target: T2, PD-L1 expressed on the cell surface …; assay: cell-based or functional assay; remark: listed apart in the source
# [9] = molecular target: T2, PD-L1 expressed on the cell surface …; assay: flow cytometry (FACS) on CHO cells expressing PD-L1, MFI; remark: listed apart in the source
# Procedure: as §1
# [10] = molecular target: T1, CD137 expressed on the cell surface …; assay: flow cytometry (FACS) on CHO cells expressing CD137, MFI; remark: listed apart in the source
# Procedure: FACS analysis to evaluate the test articles for binding to cell surface CD137 was performed essentially as follows: 100 μL of CHO cells expressing CD137 (CHO/CD137) (1.0×10⁵ to 1×10⁶ cells/well) and 100 μL of serially diluted test article or control was added to each well of microtiter assay plate(s), mixed and incubated at RT for about 30 min. The cells were washed with FACS Buffer and secondary antibody (goat anti-human-APC, PE, or FITC) was then added to each well (1:1000), after which, the components were mixed and the wells were incubated at RT for about 30 min. Cells were washed and resuspended in 250 μL FACS Buffer and analyzed by flow cytometry (BD LSR Fortessa or FACSCanto II) for cell events collection. Data analysis were performed via FloJo v10.
# T2 sequence (Q9NZQ7 19-290): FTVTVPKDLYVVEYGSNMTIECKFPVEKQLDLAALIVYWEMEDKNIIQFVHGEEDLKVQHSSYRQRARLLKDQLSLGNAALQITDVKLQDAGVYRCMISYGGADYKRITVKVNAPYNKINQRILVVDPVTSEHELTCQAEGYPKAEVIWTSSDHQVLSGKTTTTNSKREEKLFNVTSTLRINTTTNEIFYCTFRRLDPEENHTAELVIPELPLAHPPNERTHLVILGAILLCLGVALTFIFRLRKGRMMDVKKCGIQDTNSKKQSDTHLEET
# T1 sequence (Q07011 24-255 limits assumed): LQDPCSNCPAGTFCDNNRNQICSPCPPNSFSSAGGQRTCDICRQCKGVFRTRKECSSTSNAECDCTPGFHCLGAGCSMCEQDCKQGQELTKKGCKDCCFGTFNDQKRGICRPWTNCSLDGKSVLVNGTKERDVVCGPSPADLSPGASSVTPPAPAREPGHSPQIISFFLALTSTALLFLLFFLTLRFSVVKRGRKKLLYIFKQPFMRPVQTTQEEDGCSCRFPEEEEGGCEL
# T3 sequence (Q9NZQ7 19-238 limits assumed): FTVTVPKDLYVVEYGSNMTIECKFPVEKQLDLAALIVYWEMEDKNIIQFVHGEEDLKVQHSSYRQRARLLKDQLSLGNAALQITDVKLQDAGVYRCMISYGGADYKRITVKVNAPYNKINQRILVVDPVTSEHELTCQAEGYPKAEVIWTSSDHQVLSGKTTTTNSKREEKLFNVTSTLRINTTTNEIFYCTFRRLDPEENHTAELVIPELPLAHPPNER
binder,measurement,setting,value
B1,EC50 (read off the curve),[1],~0.03 µg/mL
B2,EC50 (read off the curve),[2],~0.5 µg/mL
same,EC50 (read off the curve),[1],~0.01 µg/mL
B3,EC50 (read off the curve),[3],~0.04 µg/mL
same,EC50 (read off the curve),[4],~0.07 µg/mL
same,EC50 (read off the curve),[5],~0.03 µg/mL
same,EC50 (read off the curve),[6],~0.005 µg/mL
B4,binding result,[7],binds
B5,binding result,[7],binds
B6,binding result,[7],binds
B7,EC50 (read off the curve),[8],~0.2 µg/mL
same,EC50 (read off the curve),[2],~0.2 µg/mL
same,EC50 (read off the curve),[9],~0.01 µg/mL
B8,EC50 (read off the curve),[3],~0.08 µg/mL
same,EC50 (read off the curve),[8],~0.2 µg/mL
same,EC50 (read off the curve),[10],~0.06 µg/mL
same,EC50 (read off the curve),[5],~0.04 µg/mL
same,EC50 (read off the curve),[9],~0.02 µg/mL

# Source: US20230094162A1 (MacroGenics, published 2023)
